This is an account of results in US20210371503A1 (UNIVERSITY OF COLOGNE, published 2021).

Experiment [1] deals with T1, receptor-binding domain (RBD) of the spike (S) protein of SARS-CoV-2 (SARS-CoV-2, UniProt P0DTC2 319-541).
T1 construct: also called soluble RBD
Briefly: ELISA, coated RBD [cont'd]. For orientation: An ELISA detects its analyte on a solid surface through an enzyme-linked reagent.

The target in experiment [2] is S1 (truncated S1 subunit). In words: ELISA, coated truncated S1 [cont'd].
Experiment [3] addresses T1, receptor-binding domain (RBD) of the ….
Experiment [4] has the same target. Briefly: ELISA, coated RBD [cont'd]. This is another data set of the same source.
Experiment [5] concerns the target S1 (truncated S1 subunit). Briefly: ELISA, coated truncated S1 [cont'd]. The source holds these as a separate data set.
The target of experiment [6] is T1, receptor-binding domain (RBD) of the …. Briefly: ELISA, coated RBD [cont'd]. This is another data set of the same source.
Experiment [7] concerns the target S1 (truncated S1 subunit). Briefly: ELISA, coated truncated S1 [cont'd]. The source holds these as a separate data set.
The target of experiment [8] is T1, receptor-binding domain (RBD) of the …. In words: ELISA, coated RBD.
The target in experiment [9] is S1 (truncated S1 subunit). In words: ELISA, coated truncated S1.

Positions count from the first letter of the chain named.

By EC50 is commonly meant the concentration that produces a half-maximal response. The term Kd denotes the concentration at which binding is half-saturated. Low readings indicate tighter binding, high ones weaker binding.

B1: HbnC3t1p1_F4 (antibody, V domains shown)
VH: QVQLVESGGGVVQPGRSLRLSCAATGFTFRRYGMHWVRQAPGKGLEWVAGILFDGSNKYYVDSVKGRFTISRDSSRNTLYLQLNSLRREDTAVYYCAKGGDYEWELLESWGQGTLVTVSS
VL: DIQMTQSPSTVSASVGDRVTITCRASQSIDNWLAWYQEKPGKAPKVLIYKASSLESGVPSRFSGRGSGTEFTLTISSLQPGDFATYYCQHYHSFPLTFGGGTKVDIK
For B1, the concentration for a half-maximal effect (EC50) in experiment [1] is less than 1000 µg/mL; in [2], less than 100 µg/mL.

B2: MnC4t2p1_B3 (antibody, V domains shown)
VH: EVQLVESGGHLVQPGRSLRLSCAASGFTFDDYAMHWVRQVPGKGLEWVSGISWNGGILDYADSVKGRFTISRDNAKNSLYLHMRSLRTDDTALYYCAKDLRRQDYYADWYFDLWGRGTLVTVSS
VL: DIQMIQSPSSVSASVGDRVTITCRASQGISSWLAWYQQKPGKAPKLLIYAASTLLSAVPSRFSGSGSGTDFTLTISSLQPEDFATYYCQQGNSFPFTFGPGTIVDV
B2 showed a Kd in experiment [3] of 0.09 nM. For the same molecule, the EC50 in [4] and in experiment [5] was less than 100 µg/mL each time.

B3: MnC4t2p1_E6 (antibody, V domains shown)
VH: B2 VH with D59G, H82Q
VL: B2 VL with I5T, I103K
For B3, the EC50 in experiment [6] and in [7] was less than 100 µg/mL each time.

B4: FnC1t1p2_A5 (antibody, V domains shown)
VH: QVQLVQSGAEVKKPGASVKVSCKASGYTFTSYDINWVRQATGQGLEWMGWMNPNSGNTGYAQKFQGRVTMTRNTSISTAYMELSSLRSEDTAVYYCARATTDCSSTSCWSLDFWSGYYTGGREKIFDYWGQGTLVTVSS
VL: not shown
In the case of B4, the binding result in [8] was “no binding”. The EC50 in experiment [9] was greater than 1000 µg/mL.

B5: MnC1t3p1_G9 (antibody, V domains shown)
VH: EVQLLESGGGLVQPGGSLRLSCAASGFTFRNYAMTWVRQAPGKGLEWVSGISDSGDRTYNADSVKGRFSISRDNSKNTLHLQMNSLRAEDTAVYYCALASGSYFGGANYWGQGTLVTVSS
VL: QAVVTQEPSLTVSPGGTVTLTCGSSTGPVTSDHYPYWFQQKPGQAPTTLIYDTNNKHSWTPARFSGSLLGGKAALTLSGAQPEDEAEYYCLLSYTGARVFGGGTKLTVL
In the case of B5, the EC50 in [4] and in experiment [5] was less than 100 µg/mL each time.

B6: MnC2t1p1_A3 (antibody, V domains shown)
VH: EVQLVESGGGLVQPGGSLRLSCAASGFTVSSNYMSWVRQAPGRGLEWVSVIYSGGSTFYADSVKGRFTISRDNSKNTLYLQMNSLRPEDTAVYYCATGARFGESPFDYWGQGTLVTVSS
VL: DIQMTQSPSSVSASVGDRVTITCRASQGISSWLAWYQQKPGKAPKLLIYAASSLQSGVPSRFSGSGSGTDFTLTISSLQPEDFATYYCQQANSFPGTFGQGTKVEIK
Turning to B6, in [3], the Kd amounted to 0.7 nM. Besides, the EC50 in experiment [4] and in experiment [5] was less than 100 µg/mL each time.

B7: MnC2t1p1_C5 (antibody, V domains shown)
VH: B6 VH with R43K, F58Y, P87A
VL: B6 VL
Regarding B7, the EC50 in experiment [4] and in [5] was less than 100 µg/mL each time.

B8: FnC1t2p1_D4 (antibody, V domains shown)
VH: QVQLVQSGSELKKPGASVKVSCKASGYTFLRFAMNWLRQAPGQGLEWMGWIDTNTGTPTYAQGFTGRFVFSLDTSVSTAYLQISSLKAEDTAVYYCARSLRGANLVPWGQGTLVTVSS
VL: DIQMTQSPSSLSASVGDRVTITCQASQDVSNYLNWYQQQPGKAPKLLIYDAFNLETGVPSRFSGSGSGTDFTFTISSLQPEDIATYYCQQYDNLPLTFGGGTKVEIK
B8 displayed a Kd in [3] of 0.2 nM. In addition, the concentration giving a half-maximal response (EC50) in experiment [8] and in experiment [9] was less than 100 µg/mL in each case.

B9: FnC1t2p1_G5 (antibody, V domains shown)
VH: B8 VH
VL: B8 VL
B9 displayed a Kd in experiment [3] of 0.1 nM. Further, the EC50 in experiment [1] and in experiment [2] was less than 100 µg/mL each time.

B10: CnC2t1p1_D6 (antibody, V domains shown)
VH: EVQLVESGGGLVQPGRSLRLSCTASGFTFGDYAMSWFRQAPGKGLEWVGFIRSKAYGGTTEYAASVKGRFTISRDDSKSIAYLQMNSLKTEDTAVYYCTRVRRLWFGSYYYGMDVWGQGTTVTVSS
VL: not shown
B10: the EC50 in [8] and in [9] was less than 100 µg/mL in each case.

B11: HbnC4t1p1_D5 (antibody, V domains shown)
VH: EVQLVESGGGLVQPGRSLRLSCAASGFTFDDYAMHWVRQAPGKGLEWVSGISWNSGSIGYADSVKGRFTISRDNAKNSLYLQMNSLRAEDTGLYYCAKDINYDSGGYHKNYFDYWGQGTLVTVSS
VL: DIQMTQSPSSLSASVGDRATITCRASQSISSYLNWYQEKPGKAPKLLIYAASSLQSGVPSRFSGSGSGTDFTLTISSLQPEDFATYYCQQSYSNPLTFGGGTKVEIK
For the molecule B11, the EC50 in experiment [1] and in experiment [2] was less than 1000 µg/mL throughout.

B12: HbnC3t1p1_C6 (antibody, V domains shown)
VH: QMQLVQSGPEVKKPGTSVKVSCKASGFTFTSSAVQWVRQARGQRLEWIGWIVVGSGNTNYAQKFQERVTITRDMSTSTAYMELSSLRSEDTAVYYCAAPHCSSTICYDGFDIWGQGTMVTVSS
VL: not shown
Take B12: the EC50 in experiment [1] and in experiment [2] was less than 100 µg/mL throughout.

B13: CnC2t1p1_B4 (antibody, V domains shown)
VH: QVQLVQSGAEVKKPGASVKVSCKASGYTFTSYGISWVRQAPGQGLEWMGWISAYNGNTNYAQKLQGRVTMTTDTSTSTAYMELRSLRSDDTAVYYCARDGELLGWFDPWGQGTLVTVSS
VL: QSALTQPASVSGSPGQSITISCTGTSSDVGSYNLVSWYQQHPGKAPKLMIYEGSKRPSGVSNRFSGSKSGNTASLTISGLQAEDEADYYCCSYAGSSTWVFGGGTKLTVL
Turning to B13, the EC50 in experiment [8] and in [9] was less than 100 µg/mL each time.

B14: CnC2t1p1_E8 (antibody, V domains shown)
VH: QVQLVQSGAEVKNPGASVKVSCKASGYIFTNYYIHWVRQAPGQGLEWVGWIHSLSGGTSYAQKFQGRVTLTRDASIRTAYMELSRLGSDDTALYYCARASVSTITDFDYWGQGTLVAVSS
VL: B13 VL with S27G, M49V, G53A, S54T, S65F, G66A, S96V, S97R, W99V
Consider B14, for which the EC50 in [8] and in experiment [9] was less than 100 µg/mL in each case.

B15: CnC2t1p1_G6 (antibody, V domains shown)
VH: B14 VH with N13K, S75P, R85G, L93V, S102A
VL: B13 VL with S27G, V29I, H41Y, M49I, G53A, S65F, G66A, S96V, S97R, W99V
For the molecule B15, the EC50 in [8] and in experiment [9] was less than 100 µg/mL throughout.

B16: HbnC3t1p1_G4 (antibody, V domains shown)
VH: EVQLVESGGGLVQPGGSLRLSCAASGFTVSSNYMSWVRQAPGKGLEWVSVIYSGGSTFYADSVKGRFTISRDNSKNTLYLQMNSLRAEDTAVYYCARDFGDFFFDYWGQGTLVTVSS
VL: EIVLTQSPGTLSLSPGERATLSCRASQSVSSYLAWYQQKPGQAPRLLIYGVSSRATGIPDRFSGSGSGTDFTLTISRLEPEDFAVYYCQQYGSSPRTFGQGTKVEIK
With B16, the EC50 in [1] and in experiment [2] was less than 100 µg/mL in each case.

B17: HbnC3t1p2_B10 (antibody, V domains shown)
VH: B16 VH with T28I, F99Y, F102Y
VL: B16 VL with Y49S, V51A, T56A, S76N, V104L
With B17, the 50% effective concentration (EC50) in experiment [1] and in experiment [2] was less than 100 µg/mL throughout.

B18: MnC2t2p1_C11 (antibody, V domains shown)
VH: QVQLVQSGAEVKKPGSSVKVSCKASGGTFSRYTIIWVRQAPGQGLEWMGRIIPILDIANYAQKFQGRVTITADKSTSTAYMELSSLRSEDTAVYYCAREGGLDYFGSRNSGWTYTWFDPWGQGTLVTVSS
VL: DIQMTQSPSSLSASVGDRVTITCRASQNISSYLNWYQQKPGKAPNLLIYAASSLQSGVPPRFSGSGSGTDFTLTISSLQPEDFATYYCQQSYSTLYSFGQGTKLEIK
With B18, in [3], the equilibrium dissociation constant (Kd) worked out at 0.02 nM. Also, the concentration for a half-maximal effect (EC50) in experiment [4] and in experiment [5] was less than 100 µg/mL in each case.

B19: HbnC2t1p2_D9 (antibody, V domains shown)
VH: QVQLVESGGGVVQPGRSLRLSCAASGFTFSSYGMHWVRQAPGKGLEWVAVIWYDGRNKYYVDSVKGRFTISRDNSKNTLYLQISSLRAEDTAVYYCARAARRPVVTDTMAYYMDVWGKGTTVTVSS
VL: EIVLTQSPATLSLSPGERATLSCRASLSLSSYLAWYQQKPGQAPRLLIYDASNRATGIPARFSGSGSGTDFTLTISSLEPEDFAVYYCQQRSNWPPTWTFGQGTKAEIKR
With B19, the EC50 in [1] and in experiment [2] was less than 1000 µg/mL throughout.

B20: CnC2t1p1_B10 (antibody, V domains shown)
VH: QVQLVQSGAEVKKPGSSVKVSCKASGGTFSSYAISWVRQAPGQGLEWMGGIIPIFGTANYAQKFQGRVTITADKSTSTAYMELSSLRSEDTAVYYCARVSGYDSSGYWGDYWGQGTLVTVSS
VL: EIVLTQSPATLSLSPGERATLSCRASQSVSSYLAWYQQKPGQAPRLLIYDASNRATGIPARFSGSGSGTDFTLTISSLEPEDFAVYYCQQRSNWPPALTFGGGTKVEIK
Regarding B20, the EC50 in experiment [8] and in [9] was less than 100 µg/mL in each case.
